Assay results: the DeepSol protein solubility set

Test: soluble on expression in E. coli; label from the status in PepcDB or PDB records

Row | Sequence | soluble on expression in E. coli
1 | AMDSIAKRPRTRLSPLKRKQQLMEIALEVFARRGIGRGGHADIAEIAQVSVATVFNYFPTREDLVDEVLNHVVRQFSNFLSDNIDLDLHAKENIANITNAMIELVVQDNHWLKVWFEWSASTRDEVWPLFVTTNRTNQLLVQNMFIKAIERGEVCDQHNPEDLANLFHGICYSLFVQANRTNNTAELSKLVSSYLDMLCIYKREHE | soluble
2 | MSLKIGIVGPGAIGLLYTFYLQKSNQDVTLFTRTAKQAEELNETGVTCIRDGRCETVYPPVLPIESMVAQNLDYIFISVKQYHIDDVLPFVEGASSLIFLQNGMSHLQKMLKIGSENIAVGIVEHGAKKEGGHIVHHTGIGVTKFGVVCGQSIHFKKIFRYFPVTYFPVQIETDWEEIMHKKLVVNVCINPLTALLGVKNGELITNRFFYQMMEQVFQEVAFLIRGEKEMVWQMVRNVCEGTSRNTSSMLADVRANRQTEINAIVGYVLEEAKKQQLPVPTLQFLFDAIKGLETREGHHHHHH | not soluble
3 | MGSDKIHHHHHHMSDRLPPLTALRAFDAAARHMSFAKAADELSVTPAALSFQIKSLEEHLGAPLFRRLNRAVELTEAGAALAPGVDEGFQALSAAWRQARRVLDTTSLTVTAGPALTAKWLAPRLYEFARSHPDIDLRLSAGLKMVDLRRDHVDVAIRFGYSVDDYLVAQAARPEWLTPVMTPELCAKYPTPQSLRDAPLIYDDSIGFLSPSCDWPTWFRAMGLEFTPGHGTHFSHADHAIDAACAGLGVALGRRPMIIKDVQEGRLVAPFKVAIETDAKFHFLCLPSSQDRPQIRAFREWFFSEIEKTAHMWDDFTIIPVKDL | not soluble
4 | VIGYEYPDWIWGWTNTVTYKNFTLSFTLDGRVGGMAHSKTNQAMWNSGAHIDSDNQWRYDEVVNKKTNFVGSGVKVVSGSVDYDSNGKIIHDNRVFAPNDVQVSYESYMKSTNPYIGTVTRQNVFDETFFKLRDLSLSYQMPKSVCDKLHMKGLTLAFVGQNLFVWTKEFRFTDPDSDSDNLSSPSTRYLGFNVKLDF | not soluble
5 | MCRHCHFLSAIAPVSGTNKSQPGNKWDMVLLVPFDGSALSKAALTRAMEFADYRDEDITALSVIPDDAAYAREHGWLDADEAFTVEAVADRMREQAESVAPAASFRYEVPEDVSSMASTTTNITRTIREVAHEEEASIVFIGSENAGRVSTPVCSVGSPVSEDPEYDVHIVRHP | not soluble
6 | MTVPTYDKFIEPVLRYLATKPEGAAARDVHEAAADALGLDDSQRAKVITSGQLVYKNRAGWAHDRLKRAGLSQSLSRGKWCLTPAGFDWVASHPQPMTEQETNHLAFAFVNVKLKSRPDAVDLDPKADSPDHEELAKSSPDDRLDQALKELRDAVADEVLENLLQVSPSRFEVIVLDVLHRLGYGGHRDDLQRVGGTGDGGIDGVISLDKLGLEKVYVQAKRWQNTVGRPELQAFYGALAGQKAKRGVFITTSGFTSQARDFAQSVEGMVLVDGERLVHLMIENEVGVSSRLLKVPKLDMDYFE | soluble
7 | MGSDKIHHHHHHMSNQLENAKNLYLRGIRDGEIKEVHENYMGASYTQHSTGVPDEKEGFAAFFEDFFKRNPKREINIVRAIEDGNFVFVHVHQKLNDGEAEWVTADIFRSDENGRIVEHWDVIDAYPKTIDQTDPIYADFELTDLDKTEDNKKIVRRFLVDVFQNGEIDKFDDYVAANLIQHNQEIAQGGAAYKDYLVDKAVNYDFVFKVMGQGDYVVAYSKVWIAGQDYAHFDIYRLKDGKIVEHWDNKEVMPDKKDLTNLGKF | not soluble
8 | MELRELFEVQGELDAHIEKIHPRKEGEKRLEEKILALQTELGEIANEWRQFKFWSNDREPRTERLLEEYVDGFHFVLSIGLEESKRYGQSVPIRLGLPDELTSICYETTIQQFNYLFSEIGRLYDSVTLHEVAADTEVEEAYENIIRMFIGLGEKLGFTEKEIAEGYMRKNMINHERQKNGY | not soluble
9 | MLRRSSVVLARFQPYSMAVQTRFKWRHKETDRWRRLMDATCFQVDWLGQTAGPNFAQYSGHWTHVITCAHVITPWDYPNYYPPQGPTRFVSHITLADTMTQIRLVSMQGNAVYKHFTSNQHVFVHSNPRLDLCVLHPEQNLKRSGEMKMMWMQNEGYISRPRLEINETLKVGDYVWVYGMSAHESLFDEEKGPEPLMIPTGVRARVHAVTREHFFLDTTALEDNPDRGRIQMGMCGSVVMRNGKCVGMLTATVHEESDCKELAGTAMCTYSSDVFEFLLEVEKQMKNPVARQSQEETRFEQRRRAEGGVKEHKHWELDESRTARHIPVPVSLWHMEEKWVTEEDYMNSAVFGRSGAFNQETQESALGYDMNTAKTNGDRPGDIDSFMSTTTTGKPVMQGERKDYSPTGVYANVEEFKNKDVWDYNVSSEMRSLFNETVDSKDAESLNMMRKSLENIRAQRAMEKMKETVMNRTEPGFDPLKGYGHYGGSADAGAANFNPEYASAHKGSGDAYSYAQAAQQAAREQPGDHASPASTPPPSPPPPNESVIDRKKRERREAEAKYQEELRRRHGQRAVPFGDEDLSGFWERR | not soluble
10 | SAAAIAASALPGAFGRLVSVCSRSILASQGSGSASLWSASRRFNSQSASYPQGYVPKTSLSSPPWQEVVLPDPVEETRHHAEVVKRVNELIATGQYGRLFAVVHFASHQWKVTAEDLILIENELDIKCGERIRLEKVLLVGADNFTLLGKPLLRKELVRVEATVIEKTESWPKINMKFRKRKNFRKKKIIVNPQTILRINTIEIAPRLL | soluble
11 | PDIHHPSDFSIQKLSKDEDNYVAWKIRFRSFLRVTKKFGFIDGTLPKPDPFSPLYQPWEQCNAMVMYWLMNSMTDKLLESVMYAETAHKMWEDLRRVFVPCVDLKIYQLRRRLATLRQGGDSVEEYFGKLSKVWMELSEYAPIPECKCGGCNCECTKRAEEAREKEQRYEFLMGLKLNQGFEAVTTKIMFQKPPPSLHEAFAMVKDAESMMKWYSR | not soluble
12 | MEGVELKEEWQDEDFPIPLPEDDSIEADTLDGTDPDRQPGSLEVNGNKVRKKLMAPDISLTLDPGEDSLWSDDLDEAGEVDLEGLDTPSENSDEFEWEDDLPKPKTTEVIRKGSITEYTATEEKGDGRRWRMFRIGEQDHRVDMKAIEPYKKVISHGGYYGDGLNAIVVFAVCFMPESGQPNYRYLMDNLFKYVIGTLELLVAENYMIIYLNGATTRRKMPSLGWLRRCYQQIDRRLRKNLKSLIIVHPSWFIRTLLAVTRPFISSKFSQKIRYVFNLAELAELVPMEYVGIPECIKQVDQELNGKQEPPKSEQ | not soluble
13 | MDPFDRPKNDNDPFEDALKRCHKILEKLDCPFVTGKEKDLDESDDMTENEDHDEMANEDDGIPSNEKKVETRKMDCTSGQLLAPKLPEKAESISSASESSEDSESVAILKYTVRTCYAIWKKRQKNSEIALKGLMIVLELCLSQPSARDDAFSALLETLGYNTVTFWKAVVPQIYNSDLSYATQYREALLFSLVLYDVNHSKNRLRELYAAVPGVRQSMLGIRAKQFGERYRHLQMKIARSRASSRMSSKMGSEENLPAMASMMNDVVFDEEPHTQSPLVDMSHDKQRVINVSNAPPVSISRKTSGSWEIKQGSGGLVACVDPVMSADKKNIWLSNLGVNMQEELKEHSTSTNSLGLPLIKQACAGEVFCVLERNEKKEELTPKQQAVESDMSLLSVLNTYNKHSYQLNPVVVNQDDYNTYYGGISNGLLWPALHNLPQYISPCFDDPELLREQWCAYVRVNYLFAINAARNSRAQDFIWIHDYHLMLCGQIMRSLESSLDIGFFIHIPFQPPANFMTKYKTVADPIMRALLRFTKVGFQTSRDRDTFVKLVAKHIKRTKIEYDSRLDRYTIEHDGWTCSLGVFPVSIKIADFVNIAKNPQTIIEAEEIKKQIMGRSADGGQLFFSVERFDYTKGISEKLRAWQRYFEKYPDRIGKDVLFQVAVTNRRSVDSYRQYQDDVLAVADLINQKFKSEDYPEWKPVIFETDGLPRTRLIAHYLAMDIGVVTPSKDGMNLVAKEMLVCNPTASLVLSTGAGTEVQLSNAQFYSEQEGKCYHRVEEISNTEAFADNFFAAATESKETRTKHGEKINQFLCVHDIDEWSDQFLDPKWTHEVISQCEVKQLGQFYGLMSRTAQVRRQIVECVLKGLPIRPHFRYSLENAKNSLESSCKSGTKLSLEADEESGEEKGFEITYDIHDELSEMEKDLAFLAFIQSDEYENAEEFIKTLGSFYEGGPVLFKNEVKQAAEMLQQGIHYNTFFTDRDGTLKSYACSYPTSVQPAYSAVIQAQFARRCATFCAIVTTAPLLHTGILEVATIPEGYYAYGASAGREWYLNPAQQFKDRSFSAIDLNLMNKVFDIIEELLERPEFRIFKWIGSGIQKHCGHITIAKQDVNGTIPSRKVIRLYEQLVKIVNDFDPNGTTLTMRESDLDFKIYVKAKLKGRIFNKGHGIRLVRERLKPNMSKGNCLVCGDNESDIPMLEECLKLAGSKVYTIWVTADTNLQEKVTQLCDRFSCSNIHFVSCPQVLLGAMAYATAHTLVDERNRKLDYYYDSDTPMDQEESSTLGASLGTSFGN | not soluble
14 | MSLTRNRTVALAIIDMQNDFVLPGAPACVEGAMGTVPVIAGLLAKARAEGWMVLHVVRAHRADGSDAEKSREHLFLEGGGLCVAGTPGAEIVAGLEPASGETVLVKTRFSAFMGTECDMLLRRRGVDTLLVSGTQYPNCIRGTAVDAFALDYDVVVVTDACSARTPGVAESNINDMRAMGITCVPLTALDDVLARRPVPSGPPPREGHHHHHH | soluble
15 | MTEFTPFFDGSNQLNYLKFVILRFHGVSKRKICKMYNFAYFRILEVCEMAKKNDYRFTYKDYKFLKQYGVSNTFICKMYHISIEDLEFFEVMNR | not soluble
16 | FTEYGAEYKIEVGILKDVVTLTLDTSGEGLHKRGYRENSGGAPIKETLAAAMVLLSDWNPDIELADPMCGSGTIAIEAALIGKNIAPGLKRRFVSEEWDIIPKDLWSDLRKHARNSINDKEFNILCSDIDGWVIKTARANAKKAGVDKYISFQKLPMQDFSSKRKGGFIITNPPYGERLGEVKEVEKLYKDMGRVFKALDKWSYFIITAHEKFEDCFGRKSNKNRKLYNGKLKCYYYQYFGDRK | not soluble
17 | MGGSHHHHHHGMASALELLSPQSPFRVDRGEHLPFLVKGARYTLVPAGQEGGGQTWRPLPGTTSPEDSSHLHRGQKKGAALGMAVYPYNCQAHAP | not soluble
18 | MSNKTSIEGLSALLHTLMLIPQHRWITVRELQQQLALLDIHRTTRSIKRYLDEVIVEVFNVECDSMSMPHVYRKTSEQLLKLNKQEMLYWQLTNKYLLPLVPDALNYGQGSSSERDKPLPHKASAHSKEQEWLAKVHVVLPTIREWNDEQRQVLNAVHTALLHNRMLKISSQVLQQEKALIEPLGLSVQCDALLLLFRLSGQHTIRTLALPLIDEATVSTFSFTYPTDFNLERFMREHDGVSAS | not soluble
19 | MGSDKIHHHHHHMKFFKSLLIAPAALGLMAPVAVNADTAFSPTTKLKSSVNFTVGSNADSADGDELHSSYEMKWKATTSFTGEDKLVGKFEIGSGKTLAGGIDPQSSKGGGKTPTLTDLYYQFPLAEDLTISIGPKMDGDQGLAGTTSVYGEPVLLAADGYYALAGEGGTGATIAYAGDNGWNASLNMTAADGDDASKGIFGDDTEDYVTAQLGFDGDGFGGTFTYSDSSDTYTAYGIGAYFQPESIPVTVSAYFDSMDPEKGEEDENWVVGVEADAGPGTLGVGVGTQKGTDEKLTYEAWYDYKIADGVKITPMIWTSEDAGVGGEDLSGAALNVKYKF | not soluble
20 | MNYTLKNDHLNVVVDTFGAEMHSIQHDDIEYLWQADAKFWGRHAPVLFPIVGKLKNGEYRYNDKTYKMGGHGFARDNDFELIKKSADELVFELRDNEDSLNHYPFHFVFRVSYKLVDNKIRVRYEVKNEDEKFMSFGVGAHPAFNVPLKNGTFEDYQLTISPDEKRTFIPLDPPSGTLKLDERVESQVSQLPLTRALFDKDALVYTSSKEMKVSLTNKLDDHGVSLTWKNMPYFGLEHHHHHH | not soluble
